From patent US10213494B2, “Treatment of synucleinopathies” (The Brigham and Women's Hospital, Inc., priority 2007, dated 2019)

Tests used:
[1] = tested on: GBA; conditions: Lieberman R et al., (2007); cited from earlier work
[2] = tested on: MES-syn cells; experiment: LDH release assay of cellular integrity; type: cell-based, rodent; conditions: enzyme cDNA 5 μg/10 cm dish, versus control vector transfected cells
Description: To confirm that the effect of Cathepsin D on lowering of αS in MES23.5 cells was specific and was not caused by a general decrease in cellular metabolism and integrity, the MTT and LDH assays were performed on MES-syn cells that had been co-transfected with the highest amount of Cathepsin D-encoding cDNA (5 μg/10 cm dish). Lysis of cells with 0.1% Triton-X® 100 served as a positive control, representing maximal cell death.
To confirm that the effect of Cathepsin F on lowering of αS was specific and was not caused by a general decrease in cellular integrity, the LDH assay was performed on MES-syn cells that had been co-transfected with Cathepsin F-encoding CTSF cDNA (5 μg/10 cm dish). Lysis of cells with 0.1% Triton-X 100 served as a positive control for cell toxicity, promoting maximal cell death.

[3] = tested on: α-synuclein protein (wild-type, human) in MES23.5 cells; experiment: Sandwich ELISA of intracellular α-synuclein in MES23.5 cells co-transfected with wild-type human SNCA cDNA and lysosomal enzyme cDNA; type: cell-based; conditions: cathepsin F cDNA 5 μg/10 cm dish, 24 hours, n=3
[4] = tested on: α-synuclein protein (wild-type, human) in MES23.5 cells; experiment: as above; type: cell-based; conditions: GBA variant plasmid 5 μg per 10 cm dish + 0.5 μg SNCA cDNA, 24 hours after transfection, no prosaposin; mean+/−sem
Description: Sera from six rabbits were raised and affinity-purified at Open Biosystems, Inc. (openbiosystems.com) against recombinant, full-length human αS. Recombinant αS had been HPLC- and MS-characterized and subjected to amino acid composition and protein concentration analyses. For ELISA, 384-well MaxiSorp plates (Nunc, Inc) were coated with 50 μl/well capturing polyclonal Ab (hSA-2) diluted in coating buffer (NaHCO3 with 0.2% NaN3, pH 9.6). Following washes with PBS/0.05% Tween-20 (PBS-T), plates were blocked for 2 hours at 37° C. in blocking buffer (1.125% fish skin gelatin; PBS-T). After 4 washes, samples were loaded and incubated at 4° C. for 12 hours. Biotinylated Syn-1 mAb (as the assaying Ab) was generated using 200 μg Sulfo-NHS-LC Biotin (Pierce), diluted in blocking buffer and added to the plate for 2 hours at 37° C. Following 4 washes, ExtrAvidin phosphatase (Sigma) diluted in blocking buffer was applied for 1 hr at 37° C. Color development was carried out by using Fast-p-Nitrophenyl Phosphate (Sigma) and monitored kinetically at OD 405 nm every 5 minutes for up to 60 minutes.
To optimize a ‘DNA: LIPOFECTAMINE® 2000’ ratio with low cell toxicity, MES23.5 cells were transfected with either 0.25, 0.5 or 1 μg αS-encoding, wild-type, human SNCA cDNA plus empty vector cDNA up to a total of 5.5 μg DNA per 10 cm dish. 24 hours after transfection, cell lysates were harvested as described above. For serial dilutions of cell lysates, blocking buffer containing 0.5% lysate from vector-transfected wells was used as diluent, which was also used to create the blank and the corresponding standard curve of recombinant human αS. Saturation kinetics were examined for identification of time point(s) where standards and sample dilutions were in the log phase.
MES cells were transfected with 0.5 μg per 10 cm dish of αS-encoding SNCA cDNA-carrying plasmid, plus 5 μg per 10 cm dish of wild-type or mutant, human GBA-encoding plasmid. The GBA variants used were wild type, N370S, D409H, L444P, E235A, and E340A. These 5 GBA mutants were created by site-directed mutagenesis, using the Quickchange® kit (Stratagene), and sequence-verified. The N370S, D409H and L444P are known to occur (in the homozygous or compound heterozygous state) in Gaucher disease in the heterozygous state in Parkinson Disease patients and/or patients with dementia with Lewy bodies. The E235A and E340A mutant GBA proteins are not known to occur in people.
24 hours after transfection, MES cells were lysed as described above and all lysates were analyzed by ELISA. […] This is in contrast to the result observed in Example 5 above. The observed discrepancy can reflect the differences in total DNA transfected in the two paradigms (FIG. 2B; FIG. 2C versus FIG. 4), thereby leading to changes in the DNA:LIPOFECTAMINE® 2000 ratio, and in the role of co-expressed prosaposin (saposin C). It is therefore conceivable that wild-type GBA can have variable effects on αS levels in these MES23.5 cells, depending on the rate of αS import into lysosomes and the composition as well as activation state of more than one lysosomal enzyme.
MES23.5 cells were transfected with 0.5 μg per 10 cm dish of an αS-encoding, wild-type, human SNCA cDNA-carrying plasmid (referred to as MES-hSNCA WT cells in the Western blot shown in FIG. 6), plus either 1.25, 2.5 or 5 μg per 10 cm dish of a human Cathepsin D-encoding CTSD cDNA plasmid, which was purchased from OriGene Technologies, Inc., and was under the control of a CMV promoter. The Cathepsin D clone was fully sequence-verified after isolation and maxiprep. Each transfection arm was balanced with empty vector DNA up to a total of 5.5 μg DNA per 10 cm dish. 24 hours after transfection, cells were lysed, and the resulting lysates were analyzed by the sandwich ELISA described herein. […]

[5] = tested on: α-synuclein protein in MES23.5 cells; experiment: Western blot of α-synuclein in co-transfected MES23.5 cells; type: cell-based, human; conditions: 24 hours
Description: Cells were transfected with 0, 0.25, 0.5, 1, 5, and 10 μg (per 10 cm dish) of plasmid. 24 hours later, cells were washed with Tris-buffered saline and lysed in 140 mM NaCl, 50 mM Tris-Hcl, pH 8.0, 1 mM EDTA, 0.5% Triton-X100, and 1× protease inhibitors. Lysates were centrifuged at 100,000×g for 30 min at 4° C.; the top 2/3 of supernatants were removed and frozen in siliconized tubes at −80° C. Samples were run on SDS/PAGE, using 1 mM DTT as the reducing agent. Expression of the αS protein was confirmed at 24 hours post-transfection by Western blotting, where cell lysates were probed with a monoclonal antibody against αS protein (syn-1 antibody, BD Transduction Labs).
MES23.5 cells were transfected with 0.5 μg αS-encoding SNCA cDNA per 10 cm dish plus either 1.25, 2.5 or 5 μg (low, medium, or high) GBA-encoding cDNA in the absence or presence of 5 μg of Prosaposin-encoding cDNA. All arms of the experiment were balanced up to a total of 10.5 μg cDNA per 10 cm dish using empty vector cDNA. The GBA- and Prosaposin-encoding cDNA plasmids under a CMV promoter, as well as the pCMV-XL5 empty vector were purchased from OriGene Technologies, Inc (clones had been fully sequence-verified after isolation and a maxiprep). 24 hours later, cells were lysed and probed for GBA and αS protein levels. The upper panel in of FIG. 2B3 is a representation of a Western Blot indicating expression of GBA protein in the absence and presence of co-transfected prosaposin. GBA was probed using the monoclonal antibody 8E4. GBA over-expression occurred in a slightly gene-dosage dependent way in the absence of prosaposin. In the presence of prosaposin over-expression, the GBA signal itself was decreased. […]

For OC[C@H]1CNC[C@@H](O)[C@@H]1O [isofagomine], the “effect on GBA activity” value [1] is given as “increase GBA activity in mice and humans”.

B1: cathepsin F: human lysosomal cysteine protease expressed from CTSF plasmid under a CMV promoter (protein, UniProt Q9UBX1 271-484, looked up)
Cathepsin F: APPEWDWRSKGAVTKVKDQGMCGSCWAFSVTGNVEGQWFLNQGTLLSLSEQELLDCDKMDKACMGGLPSNAYSAIKNLGGLETEDDYSYQGHMQSCNFSAEKAKVYINDSVELSQNEQKLAAWLAKRGPISVAINAFGMQFYRHGISRPLRPLCSPWLIDHAVLLVGYGNRSDVPFWAIKNSWGTDWGEKGYYYLHRGSGACGVNTMASSAVVD
In the case of B1, the LDH signal [2] is reported as “less than or equal to that of control vector transfected cells” and the “intracellular α-synuclein level, % of control levels” value [3] is reported as 51.7+/−14.1%.

B2: wild-type GBA: human acid-beta-glucocerebrosidase expressed from GBA-encoding cDNA plasmid under a CMV promoter (protein, UniProt P04062 40-536, looked up)
Lysosomal acid …: ARPCIPKSFGYSSVVCVCNATYCDSFDPPTFPALGTFSRYESTRSGRRMELSMGPIQANHTGTGLLLTLQPEQKFQKVKGFGGAMTDAAALNILALSPPAQNLLLKSYFSEEGIGYNIIRVPMASCDFSIRTYTYADTPDDFQLHNFSLPEEDTKLKIPLIHRALQLAQRPVSLLASPWTSPTWLKTNGAVNGKGSLKGQPGDIYHQTWARYFVKFLDAYAEHKLQFWAVTAENEPSAGLLSGYPFQCLGFTPEHQRDFIARDLGPTLANSTHHNVRLLMLDDQRLLLPHWAKVVLTDPEAAKYVHGIAVHWYLDFLAPAKATLGETHRLFPNTMLFASEACVGSKFWEQSVRLGSWDRGMQYSHSIITNLLYHVVGWTDWNLALNPEGGPNWVRNFVDSPIIVDITKDTFYKQPMFYHLGHFSKFIPEGSQRVGLVASQKNDLDAVALMHPDGSAVVVVLNRSSKDVPLTIKDPAVGFLETISPGYSIHTYLWRRQ
In the case of B2, the “intracellular α-synuclein level, % of vector cDNA control levels” value [4] is reported as 109.7+/−9.88%, the “α-synuclein protein level by Western blot” value ([5]; GBA cDNA 1.25, 2.5 or 5 μg + 0.5 μg SNCA cDNA, absence of co-transfected prosaposin) is reported as “lowered the co-expressed α-synuclein protein levels at the largest amount of co-transfected GBA cDNA” and the “α-synuclein protein level by Western blot” value ([5]; GBA cDNA low/medium/high with 5 μg Prosaposin-encoding cDNA) is reported as “strong decrease in α-synuclein protein levels at even the lower concentrations”.
